Results as given in paper PMC8431453.

Biological target: Met receptor tyrosine kinase (human (endogenous in EHMES-1)) (UniProt P08581)
Sequence of UniProt P08581 (P08581 25-1390): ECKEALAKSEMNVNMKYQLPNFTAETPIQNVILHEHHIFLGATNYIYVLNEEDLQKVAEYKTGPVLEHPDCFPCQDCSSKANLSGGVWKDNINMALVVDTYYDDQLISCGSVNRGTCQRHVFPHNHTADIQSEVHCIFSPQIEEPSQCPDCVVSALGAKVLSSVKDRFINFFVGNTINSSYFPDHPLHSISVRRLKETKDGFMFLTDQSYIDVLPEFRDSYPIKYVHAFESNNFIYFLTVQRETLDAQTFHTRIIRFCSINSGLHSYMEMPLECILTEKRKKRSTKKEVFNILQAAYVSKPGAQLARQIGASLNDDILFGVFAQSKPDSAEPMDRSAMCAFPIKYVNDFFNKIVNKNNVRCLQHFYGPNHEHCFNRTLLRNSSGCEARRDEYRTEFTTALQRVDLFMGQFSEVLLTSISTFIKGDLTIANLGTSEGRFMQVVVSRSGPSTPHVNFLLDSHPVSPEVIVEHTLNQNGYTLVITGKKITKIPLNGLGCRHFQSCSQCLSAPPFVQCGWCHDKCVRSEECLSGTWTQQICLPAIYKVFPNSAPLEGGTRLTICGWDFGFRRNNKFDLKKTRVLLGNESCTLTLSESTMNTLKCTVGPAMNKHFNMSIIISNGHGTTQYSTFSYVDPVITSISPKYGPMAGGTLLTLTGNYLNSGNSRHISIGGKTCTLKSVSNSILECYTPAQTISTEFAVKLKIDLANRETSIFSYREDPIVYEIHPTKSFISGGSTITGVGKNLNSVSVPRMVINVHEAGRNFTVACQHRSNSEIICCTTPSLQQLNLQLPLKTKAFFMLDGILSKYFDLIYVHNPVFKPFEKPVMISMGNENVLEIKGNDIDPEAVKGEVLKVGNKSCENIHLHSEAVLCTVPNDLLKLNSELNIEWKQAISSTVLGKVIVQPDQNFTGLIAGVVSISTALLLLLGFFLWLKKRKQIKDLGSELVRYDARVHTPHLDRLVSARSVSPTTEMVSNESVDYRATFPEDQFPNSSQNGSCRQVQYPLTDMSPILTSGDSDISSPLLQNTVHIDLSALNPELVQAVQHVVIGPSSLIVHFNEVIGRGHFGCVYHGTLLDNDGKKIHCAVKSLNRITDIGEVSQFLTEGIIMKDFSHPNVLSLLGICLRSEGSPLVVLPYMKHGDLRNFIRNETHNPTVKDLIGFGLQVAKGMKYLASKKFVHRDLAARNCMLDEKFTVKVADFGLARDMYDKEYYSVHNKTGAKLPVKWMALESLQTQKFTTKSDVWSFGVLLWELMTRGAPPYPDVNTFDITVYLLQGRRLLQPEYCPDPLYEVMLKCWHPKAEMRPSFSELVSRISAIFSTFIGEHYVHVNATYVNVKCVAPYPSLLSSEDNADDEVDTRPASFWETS

Row | Met Y1234/1235 phosphorylation in EHMES-1 cells, cell-based ELISA, at 30 nM, compared with wild-type NK1 | Met Y1234/1235 phosphorylation in EHMES-1 cells, cell-based ELISA, compared with 30 nM wild-type NK1 (fold of 30 nM wild-type NK1) | Substance
1 | 52.2% |  | K144A mutant NK1 (ligand)
2 | 8.3% |  | N127A mutant NK1 (ligand)
3 | 23.8% |  | V140A mutant NK1 (ligand)
4 |  | 2.5 | wild-type hepatocyte growth factor (two-chain HGF) (from UniProt P14210-3 32-489) (ligand)
